The source of these data is paper doi:10.1101/2020.02.13.946640 (bioRxiv, 2020).

B2: d subunit of Thermus thermophilus V/A-ATPase (natural protein, UniProt P74902 1-323, looked up)
chain: MADDFAYLNARVRVRRGTLLKESFFQEALDLSFADFLRLLSETVYGGELAGQGLPDVDRAVLRTQAKLVGDLPRLVTGEAREAVRLLLLRNDLHNLQALLRAKATGRPFEEVLLLPGTLREEVWRQAYEAQDPAGMAQVLAVPGHPLARALRAVLRETQDLARVEALLAKRFFEDVAKAAKGLDQPALRDYLALEVDAENLRTAFKLQGSGLAPDAFFLKGGRFVDRVRFARLMEGDYAVLDELSGTPFSGLSGVRDLKALERGLRCVLLKEAKKGVQDPLGVGLVLAYVKEREWEAVRLRLLARRAYFGLPRAQVEEEVVCP

Where two headings read alike, the source gives them in different places.

Holding throughout (test): cryo-EM structure
The target in test [1] is c subunit of Thermus thermophilus V/A-ATPase, His3-tagged (Thermus thermophilus) (UniProt Q5SIT7).
For test [2] the target is unchanged. This is another data set of the same source.
Test [3] addresses B2.
Test [4] has as its target T1, a subunit of Thermus thermophilus V/A-ATPase (Thermus thermophilus, UniProt Q5SIT6 1-652).
T1 sequence (looked up): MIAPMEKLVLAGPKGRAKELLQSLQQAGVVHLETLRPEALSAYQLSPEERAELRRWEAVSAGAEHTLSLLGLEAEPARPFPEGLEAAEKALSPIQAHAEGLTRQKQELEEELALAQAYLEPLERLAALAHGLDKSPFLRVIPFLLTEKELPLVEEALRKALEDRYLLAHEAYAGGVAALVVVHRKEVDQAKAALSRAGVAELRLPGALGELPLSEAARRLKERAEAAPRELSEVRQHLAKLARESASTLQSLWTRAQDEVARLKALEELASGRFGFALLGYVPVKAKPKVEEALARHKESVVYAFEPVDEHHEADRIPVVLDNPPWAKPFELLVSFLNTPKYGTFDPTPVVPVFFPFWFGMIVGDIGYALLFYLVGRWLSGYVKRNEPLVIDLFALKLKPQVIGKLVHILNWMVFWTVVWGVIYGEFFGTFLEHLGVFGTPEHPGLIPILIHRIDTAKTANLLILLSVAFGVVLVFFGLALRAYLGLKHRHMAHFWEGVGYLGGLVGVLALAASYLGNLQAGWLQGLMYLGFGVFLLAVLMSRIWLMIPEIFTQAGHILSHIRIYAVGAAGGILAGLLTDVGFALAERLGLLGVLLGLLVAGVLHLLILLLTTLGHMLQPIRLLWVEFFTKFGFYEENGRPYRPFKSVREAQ

For the molecule “c subunit of Thermus thermophilus V/A-ATPase, His3-tagged (from UniProt Q5SIT7 1-99) (natural protein)”, the stoichiometry N in test [1] and in test [2] was 12 throughout.

B1: D subunit of Thermus thermophilus V/A-ATPase (natural protein, UniProt O87880 1-223, looked up)
chain: MSQVSPTRMNLLQRRGQLRLAQKGVDLLKKKRDALVAEFFGLVREAMEARKALDQAAKEAYAALLLAQAFDGPEVVAGAALGVPPLEGVEAEVENVWGSKVPRLKATFPDGALLSPVGTPAYTLEASRAFRRYAEALIRVANTETRLKKIGEEIKKTTRRVNALEQVVIPGIRAQIRFIQQVLEQREREDTFRLKRIKGKIEAREAEEEGGRPNPQVEIGAGL
Take B1: the binding result in test [3] is “binds”.

In the case of B2, in test [4], the binding result is on record as “binds”.
